Laboratory results: patent publication US20260240958A1, “REPRESSOR FUSION PROTEIN SYSTEMS” (Scribe Therapeutics Inc., priority 2023, published 2026)

Key:
[1] = tested on: 6.7/6.8 target dsDNA; assay: In vitro cleavage rate (kcleave) of CasX 491 RNPs with gRNA variants on labeled dsDNA target; format: biochemical; conditions: CasX 491 RNP, v1 gRNA, compared with scaffold 174
Procedure: (§1) Double-stranded DNA (dsDNA) targets were formed by mixing the oligos in a 1:1 ratio in 1× cleavage buffer (20 mM Tris HCl pH 7.5, 150 mM NaCl, 1 mM TCEP, […], 10 mM MgCl2), following by heating to 95° C. for 10 minutes, and then allowing the solution to cool to room temperature. CasX ribonucleoproteins (RNPs) were reconstituted with CasX 491 and the indicated gRNAs at a final concentration of 1 μM with 1.2-fold excess of the indicated gRNA in 1× cleavage buffer. RNPs were allowed to form at 37° C. for 10 minutes.
The effects of various structural and chemical modifications to the gRNA scaffold on the cleavage rate of CasX 491 RNPs were determined. Cleavage reactions were prepared with final RNP concentrations of 200 nM and final target concentrations of 10 nM, and reactions were carried out at 16° C. and initiated by the addition of the labeled target DNA substrate (Table 46). Aliquots of reactions were taken at 0.25, 0.5, 1, 2, 5, and 10 minutes and quenched by adding an equal volume of 95% formamide with 20 mM EDTA. Samples were denatured at 95° C. for 10 minutes and resolved on a 10% urea-PAGE gel. Gels were imaged on a Typhoon™ laser-scanner platform and quantified using ImageQuant™ TL 8.2 image analysis software (Cytiva™). The apparent first-order rate constant of non-target strand cleavage (kcieave-) was determined for each CasX:gRNA combination.

[2] = tested on: 6.7/6.8 target dsDNA; assay: Competent (active) fraction of CasX 491 RNPs formed by each gRNA, equimolar cleavage assay; format: biochemical; conditions: CasX 491 RNP, v1 gRNA, spacer 6.7 or 6.8
Procedure: as §1
To determine the competent fraction formed by each gRNA, cleavage reactions were prepared with final RNP concentrations of 100 nM and final target concentrations of 100 nM. Reactions were carried out at 37° C. and initiated by the addition of the labeled target substrate (Table 46). Aliquots were taken at 0.5, 1, 2, 5, 10, and 30 minutes and quenched by adding an equal volume of 95% formamide with 25 mM EDTA. Samples were denatured by heating at 95° C. for 10 minutes and resolved on a 10% urea-PAGE gel. Gels were imaged and quantified as above. […] The plateau of each fit was determined and reported as the active fraction for each RNP in Table 49.

[3] = tested on: PCSK9 locus; assay: Editing (indel rate by NGS) at the PCSK9 locus in HepG2 cells lipofected with CasX 491 mRNA and gRNA; format: cell-based, human; conditions: CasX 491 mRNA, v1 gRNAs spacers 6.7 and 6.8, 28 hours
Procedure: (§2) Editing at the PCSK9 locus and consequential effects on secreted PCSK9 levels were assessed for conditions using CasX 491 mRNA co-delivered with a PCSK9-targeting gRNA with scaffold variant 174 compared to conditions where a PCSK9-targeting gRNA with scaffold variant 316 was used. 100 ng of in vitro transcribed mRNA coding for CasX 491 with a P2A and mScarlet fluorescent protein was transfected into HepG2 cells with version 1 (v1) of gRNAs 174-6.7, 174-6.8, 316-6.7, and 316-6.8 (see Table 45) using lipofectamine. After a media change, the following were harvested at 28 hours post-transfection: 1) transfected cells were harvested for editing assessment at the PCSK9 locus by NGS (next generation sequencing); and 2) media supernatant was harvested to measure secreted PCSK9 protein levels by ELISA. For editing analysis by NGS, amplicons were amplified from 200 ng of extracted gDNA with a set of primers targeting the PCSK9 locus and processed as described earlier in Example 1. Secreted PCSK9 levels in the media supernatant were also analyzed using a fluorescence resonance energy transfer-based immunoassay from CISBio following the manufacturer's instructions. […]
(§3) V1 through v6 variants of chemically-modified PCSK9-targeting gRNAs (Table 45) were assessed for their effects on editing potency and consequential effects on secreted PCSK9 levels in vitro. […]

[4] = tested on: PCSK9 locus; assay: Secreted PCSK9 levels in media of HepG2 cells lipofected with CasX 491 mRNA and gRNA; format: cell-based, human; conditions: CasX 491 mRNA, v1 gRNAs spacers 6.7 and 6.8, compared with scaffold 174
Procedure: as §2, §3

[5] = tested on: B2M locus; assay: B2M knockout (loss of HLA surface presentation, flow cytometry) in HepG2 cells with CasX 491 mRNA and B2M-targeting gRNA; format: cell-based, human; conditions: LNPs, CasX 491 mRNA, spacer 7.9 v1, each dose, compared with scaffold 174
Procedure: To compare the editing potency of version 0 (v0) and version 1 (v1) of B2M-targeting gRNAs, ~6E4 HepG2 hepatocytes were seeded per well of a 96-well plate. 24 hours later, seeded cells were co-transfected using lipofectamine with 100 ng of in vitro transcribed mRNA coding for CasX 491 and different doses (1, 5, or 50 ng) of either v0 or v1 of the B2M-targeting gRNA containing scaffold variant 174 and spacer 7.37 (see Table 45).
(§4) ~50,000 HepG2 cells, cultured in DMEM/F-12 media containing 10% FBS and 1% PenStrep, were seeded per well in a 96-well plate. The next day, seeded cells were treated with varying concentrations of LNPs, which were prepared in six 2-fold serial dilutions starting at 250 ng. These LNPs were formulated to encapsulate CasX 491 mRNA and a B2M-targeting gRNA incorporating either scaffold variant 174 or 316 with spacer 7.9 (v1; see Table 45). Media was changed 24 hours after LNP treatment, and cells were cultured for six additional days prior to harvesting for gDNA extraction for editing assessment at the B2M locus by NGS and B2M protein expression analysis via HLA immunostaining, followed by flow cytometry using the Attune NxT flow cytometer. Briefly, for editing assessment, amplicons were amplified from 200 ng of extracted gDNA with primers targeting the human B2M locus and processed as described in Example 1.

[6] = tested on: human B2M locus; assay: Indel rate by NGS at the human B2M locus in HepG2 cells treated with LNPs (CasX 491 mRNA and gRNA); format: cell-based; conditions: CasX 491 mRNA
Procedure: as §4

[7] = tested on: B2M locus; assay: B2M repression by HLA immunostaining and flow cytometry in HEK293T cells transfected with LTRP:gRNA plasmids

B1: scaffold 316: chimeric gRNA scaffold: scaffold 235 with extended stem loop of scaffold 174; SEQ ID NO 1746 (nucleic acid)
guide: ACUGGCGCUUCUAUCUGAUUACUCUGAGCGCCAUCACCAGCGACUAUGUCGUAGUGGGUAAAGCUCCCUCUUCGGAGGGAGCAUCAGAG
modifications: listed as RNA, further chemistry not given here
- cleavage rate ([1]; spacer 6.7): marginally faster cleavage
- cleavage rate ([1]; spacer 6.8): nearly twice as quickly
- active fraction higher than for scaffold 174 [2]: 25-30%
- increase in editing rate at the PCSK9 locus over scaffold 174 [3]: ~ 10 percentage point
- reduction of PCSK9 secretion [4]: more effective reduction of PCSK9 secretion
- editing potency at the B2M locus (loss of HLA surface presentation) [5]: higher editing potency at the B2M locus
- editing potency at the B2M locus (indel rate by NGS) ([6]; spacer 7.9 v1, each dose, compared with scaffold 174): higher editing potency at the B2M locus
- editing level at the B2M locus compared with scaffold 174 ([6]; spacer 7.9 v1, highest dose of 250 ng): nearly two-fold higher

B2: DOMAIN_26749: repressor domain, Ophiophagus hannah, SEQ ID NO 135 (protein)
chain: STPVTFEDVVVYFTAAEWVHLTNWQRDFYQAVMMETYELVASVAGDGVPMAEDEEGGVERPVWQYIPRGKRRRKTPQPRAD
modifications: Ophiophagus hannah
- B2M repression as second repressor domain in LTRP6 configuration ([7]; 4 days post-transfection): highest level of B2M repression at 4 days post-transfection
- B2M repression (HLA-negative cells) ([7]; gRNA scaffold 174 spacer 7.165, LTRP6 = ZIM3 first, named domain second repressor domain, day not stated in text (Tables 16-18, days 4-13)): ~ 83.800%
